Tests used:
Experiment in all cases: IEDB peptide-MHC binding, cellular MHC/competitive/fluorescence; ≥ and ≤ were set here for values at or beyond the usual limits of such assays
[1] = biological target: HLA-A*02:04
[2] = biological target: HLA-A*02:03; details: source organism: Human papillomavirus 16
[3] = biological target: HLA-A*02:02; details: source organism: Human papillomavirus 16
[4] = biological target: HLA-A*02:05; details: source organism: Human papillomavirus 16
[5] = biological target: HLA-A*02:06; details: source organism: Human papillomavirus 16
[6] = source organism: Human papillomavirus 16

Sequence | IC50 ([1]; source organism: Hepatitis B virus) [µM] | IC50 [1, 6] [µM] | IC50 [2] [µM] | IC50 [3] [µM] | IC50 [4] [µM] | IC50 [5] [µM]
FLPSDFFPSV | 1 | – | – | – | – | –
YMLDLQPETT | – | 11 | 5 | 6 | ≥ 100 | ≥ 70
TLGIVCPI | – | 4 | 2 | 4 | ≥ 20 | 28
